Measured values: PMC12618078

What was measured:
[1] = molecular target: RIF1 (UniProt Q5UIP0); assay: reciprocal co-IP, Western blot; details: reference: WT 53BP1 (before and 1 h after IR); sites T334
[2] = molecular target: PTIP (UniProt Q6ZW49); assay: reciprocal co-IP, Western blot; details: reference: WT 53BP1 (before and 1 h after IR); sites T334

53BP1 (from UniProt Q12888) T334A 53BP1 (before and 1 h after IR)
binding against the reference [1]: stronger
binding against the reference [2]: stronger
